# Measured values taken from doi:10.1101/2021.03.12.434960 (bioRxiv, 2021).
# T1: full-length human KIF5A, C-terminal mScarlet-StrepII (human, UniProt Q12840 1-1032)
# T1 sequence: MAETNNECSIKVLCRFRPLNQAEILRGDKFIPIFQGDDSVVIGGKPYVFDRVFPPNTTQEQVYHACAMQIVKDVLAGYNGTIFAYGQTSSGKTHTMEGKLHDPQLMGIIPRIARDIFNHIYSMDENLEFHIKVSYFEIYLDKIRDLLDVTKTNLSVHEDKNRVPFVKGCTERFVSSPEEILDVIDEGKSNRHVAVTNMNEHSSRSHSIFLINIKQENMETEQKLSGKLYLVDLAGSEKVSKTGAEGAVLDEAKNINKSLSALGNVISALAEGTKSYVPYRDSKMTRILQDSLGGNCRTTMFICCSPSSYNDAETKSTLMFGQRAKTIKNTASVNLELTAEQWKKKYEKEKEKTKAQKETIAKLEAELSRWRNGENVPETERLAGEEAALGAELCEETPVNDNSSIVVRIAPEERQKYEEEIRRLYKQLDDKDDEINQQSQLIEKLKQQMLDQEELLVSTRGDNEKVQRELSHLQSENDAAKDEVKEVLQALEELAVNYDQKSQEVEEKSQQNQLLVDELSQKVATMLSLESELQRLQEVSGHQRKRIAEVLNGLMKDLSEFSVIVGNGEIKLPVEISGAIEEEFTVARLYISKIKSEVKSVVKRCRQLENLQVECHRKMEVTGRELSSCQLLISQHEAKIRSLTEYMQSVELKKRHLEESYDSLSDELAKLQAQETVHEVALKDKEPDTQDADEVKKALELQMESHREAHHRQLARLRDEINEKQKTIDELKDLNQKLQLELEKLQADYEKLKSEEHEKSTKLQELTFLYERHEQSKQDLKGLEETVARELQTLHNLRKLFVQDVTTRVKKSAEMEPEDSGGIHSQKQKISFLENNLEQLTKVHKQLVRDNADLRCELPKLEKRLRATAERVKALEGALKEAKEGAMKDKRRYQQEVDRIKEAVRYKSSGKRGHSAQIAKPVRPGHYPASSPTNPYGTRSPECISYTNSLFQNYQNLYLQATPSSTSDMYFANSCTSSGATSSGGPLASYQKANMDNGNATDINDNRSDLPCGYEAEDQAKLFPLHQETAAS
# T2: full-length human KIF5B, C-terminal mScarlet-StrepII (human, UniProt P33176 1-963)
# T2 sequence: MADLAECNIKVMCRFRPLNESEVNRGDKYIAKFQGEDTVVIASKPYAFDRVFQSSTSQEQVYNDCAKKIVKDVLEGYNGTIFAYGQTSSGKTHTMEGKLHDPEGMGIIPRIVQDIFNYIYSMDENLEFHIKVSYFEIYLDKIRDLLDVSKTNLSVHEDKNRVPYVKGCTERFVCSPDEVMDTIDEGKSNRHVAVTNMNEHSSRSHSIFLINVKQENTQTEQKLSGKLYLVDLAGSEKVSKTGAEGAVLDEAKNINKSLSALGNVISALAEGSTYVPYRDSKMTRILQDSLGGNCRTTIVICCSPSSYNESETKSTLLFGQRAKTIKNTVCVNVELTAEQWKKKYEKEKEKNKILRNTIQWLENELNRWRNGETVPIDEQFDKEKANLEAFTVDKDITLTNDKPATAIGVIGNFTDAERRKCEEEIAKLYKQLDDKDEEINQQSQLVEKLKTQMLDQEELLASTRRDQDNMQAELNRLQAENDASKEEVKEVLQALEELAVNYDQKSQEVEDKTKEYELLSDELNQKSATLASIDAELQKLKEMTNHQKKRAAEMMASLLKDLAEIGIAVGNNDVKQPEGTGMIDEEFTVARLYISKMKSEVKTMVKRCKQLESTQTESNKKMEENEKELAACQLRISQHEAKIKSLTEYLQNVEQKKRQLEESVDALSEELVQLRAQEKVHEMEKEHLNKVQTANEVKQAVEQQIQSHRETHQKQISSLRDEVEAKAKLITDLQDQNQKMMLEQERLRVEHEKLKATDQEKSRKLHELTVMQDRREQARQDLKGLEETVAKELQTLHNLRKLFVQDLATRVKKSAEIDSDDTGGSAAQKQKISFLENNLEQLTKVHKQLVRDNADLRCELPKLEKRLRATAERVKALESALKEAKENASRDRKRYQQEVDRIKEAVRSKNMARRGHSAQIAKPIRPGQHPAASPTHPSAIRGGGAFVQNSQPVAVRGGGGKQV
# T3: KIF5B-Δhinge (Δ505-610), C-terminal mScarlet-StrepII (human, UniProt P33176 1-963, Δ505-610)
# T3 sequence: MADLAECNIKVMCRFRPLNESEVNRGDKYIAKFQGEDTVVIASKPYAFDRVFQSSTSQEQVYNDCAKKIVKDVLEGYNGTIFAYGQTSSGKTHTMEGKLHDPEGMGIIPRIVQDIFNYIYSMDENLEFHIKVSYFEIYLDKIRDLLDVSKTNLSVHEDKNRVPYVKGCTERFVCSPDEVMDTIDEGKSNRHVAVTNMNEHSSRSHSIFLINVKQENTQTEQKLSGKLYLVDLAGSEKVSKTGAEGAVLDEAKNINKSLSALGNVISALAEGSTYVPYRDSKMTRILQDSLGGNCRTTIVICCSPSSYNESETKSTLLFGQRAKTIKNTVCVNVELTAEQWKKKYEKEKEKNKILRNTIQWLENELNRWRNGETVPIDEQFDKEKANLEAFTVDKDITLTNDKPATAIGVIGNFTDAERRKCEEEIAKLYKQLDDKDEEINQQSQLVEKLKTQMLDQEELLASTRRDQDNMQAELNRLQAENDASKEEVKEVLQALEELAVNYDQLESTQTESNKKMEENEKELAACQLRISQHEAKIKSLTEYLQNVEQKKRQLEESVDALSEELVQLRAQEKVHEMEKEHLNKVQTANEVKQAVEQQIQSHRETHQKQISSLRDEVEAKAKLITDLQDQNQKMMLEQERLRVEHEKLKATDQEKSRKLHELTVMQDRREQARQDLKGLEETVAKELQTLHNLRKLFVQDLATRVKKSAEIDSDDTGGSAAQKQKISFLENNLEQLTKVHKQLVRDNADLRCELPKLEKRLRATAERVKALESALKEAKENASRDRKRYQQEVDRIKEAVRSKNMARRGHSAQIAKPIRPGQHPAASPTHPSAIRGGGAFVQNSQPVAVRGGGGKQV
# B1: full-length human KIF5C, C-terminal mScarlet-StrepII (natural protein)
# chain: MADPAECSIKVMCRFRPLNEAEILRGDKFIPKFKGDETVVIGQGKPYVFDRVLPPNTTQEQVYNACAKQIVKDVLEGYNGTIFAYGQTSSGKTHTMEGKLHDPQLMGIIPRIAHDIFDHIYSMDENLEFHIKVSYFEIYLDKIRDLLDVSKTNLAVHEDKNRVPYVKGCTERFVSSPEEVMDVIDEGKANRHVAVTNMNEHSSRSHSIFLINIKQENVETEKKLSGKLYLVDLAGSEKVSKTGAEGAVLDEAKNINKSLSALGNVISALAEGTKTHVPYRDSKMTRILQDSLGGNCRTTIVICCSPSVFNEAETKSTLMFGQRAKTIKNTVSVNLELTAEEWKKKYEKEKEKNKTLKNVIQHLEMELNRWRNGEAVPEDEQISAKDQKNLEPCDNTPIIDNIAPVVAGISTEEKEKYDEEISSLYRQLDDKDDEINQQSQLAEKLKQQMLDQDELLASTRRDYEKIQEELTRLQIENEAAKDEVKEVLQALEELAVNYDQKSQEVEDKTRANEQLTDELAQKTTTLTTTQRELSQLQELSNHQKKRATEILNLLLKDLGEIGGIIGTNDVKTLADVNGVIEEEFTMARLYISKMKSEVKSLVNRSKQLESAQMDSNRKMNASERELAACQLLISQHEAKIKSLTDYMQNMEQKRRQLEESQDSLSEELAKLRAQEKMHEVSFQDKEKEHLTRLQDAEEMKKALEQQMESHREAHQKQLSRLRDEIEEKQKIIDEIRDLNQKLQLEQEKLSSDYNKLKIEDQEREMKLEKLLLLNDKREQAREDLKGLEETVSRELQTLHNLRKLFVQDLTTRVKKSVELDNDDGGGSAAQKQKISFLENNLEQLTKVHKQLVRDNADLRCELPKLEKRLRATAERVKALESALKEAKENAMRDRKRYQQEVDRIKEAVRAKNMARRAHSAQIAKPIRPGHYPASSPTAVHAIRGGGGSSSNSTHYQK
# Legend:
# [1] = molecular target: T1, full-length human KIF5A, C-terminal …
# [2] = molecular target: T2, full-length human KIF5B, C-terminal …
# [3] = molecular target: B1
# SEC-MALS = molecular target: the molecule itself; assay: SEC-MALS
# [4] = molecular target: T3, KIF5B-Δhinge (Δ505-610), C-terminal …; assay: TIRF microscopy on surface-bound microtubules
binder,measurement,setting,value
human KLC1 with N-terminal 6xHis-FLAG (co-expressed with KIF5) (natural protein) MYDNMSTMVYIKEDKLEKLTQDEIISKTKQVIQGLEALKNEHNSILQSLLETLKCLKKDDESNLVEEKSNMIRKSLEMLELGLSEAQVMMALSNHLNAVESEKQKLRAQVRRLCQENQWLRDELANTQQKLQKSEQSVAQLEEEKKHLEFMNQLKKYDDDISPSEDKDTDSTKEPLDDLFPNDEDDPGQGIQQQHSSAAAAAQQGGYEIPARLRTLHNLVIQYASQGRYEVAVPLCKQALEDLEKTSGHDHPDVATMLNILALVYRDQNKYKDAANLLNDALAIREKTLGKDHPAVAATLNNLAVLYGKRGKYKEAEPLCKRALEIREKVLGKDHPDVAKQLNNLALLCQNQGKYEEVEYYYQRALEIYQTKLGPDDPNVAKTKNNLASCYLKQGKFKQAETLYKEILTRAHEREFGSVDDENKPIWMHAEEREECKGKQKDGTSFGEYGGWYKACKVDSPTVTTTLKNLGALYRRQGKFEAAETLEEAAMRSRKQGLDNVHKQRVAEVLNDPENMEKRRSRESLNVDVVKYESGPDGGEEVSMSVEWNGGVSGRASFCGKRQQQQWPGRRHR,stoichiometry N,[1],~0.8 KLC1 per KHC
same,stoichiometry N,[2],~0.8 KLC1 per KHC
same,stoichiometry N,[3],~0.8 KLC1 per KHC
B1,stoichiometry N,SEC-MALS,2
"KLC1-CC (aa 1-200), N-terminal 6xHis-2xStrepII-sfGFP (domain or fragment) MYDNMSTMVYIKEDKLEKLTQDEIISKTKQVIQGLEALKNEHNSILQSLLETLKCLKKDDESNLVEEKSNMIRKSLEMLELGLSEAQVMMALSNHLNAVESEKQKLRAQVRRLCQENQWLRDELANTQQKLQKSEQSVAQLEEEKKHLEFMNQLKKYDDDISPSEDKDTDSTKEPLDDLFPNDEDDPGQGIQQQHSSAAA",binding result,[4],binds
